Assay results as given in patent publication US8618101B2, “N-((1R,2S,5R)-5-(tert-butylamino)-2-((S)-3-(7-tert-butylpyrazolo[1,5-a][1,3,5]triazin-4-ylamino)-2-oxopyrrolidin-1-yl)cyclohexyl)acetamide, a dual modulator of chemokine receptor activity, crystalline forms and processes” (Bristol-Myers Squibb Company, priority 2009, dated 2013).
pKd: −log10 of the molar value.

Target: CCR-2 (Homo sapiens, UniProt P41597)
Assay: Cold competition ligand binding to hCCR-2 using 125I-human MCP-1
Settings: 125I-human MCP-1, n=8

Chain of CCR-2 (P41597 whole entry): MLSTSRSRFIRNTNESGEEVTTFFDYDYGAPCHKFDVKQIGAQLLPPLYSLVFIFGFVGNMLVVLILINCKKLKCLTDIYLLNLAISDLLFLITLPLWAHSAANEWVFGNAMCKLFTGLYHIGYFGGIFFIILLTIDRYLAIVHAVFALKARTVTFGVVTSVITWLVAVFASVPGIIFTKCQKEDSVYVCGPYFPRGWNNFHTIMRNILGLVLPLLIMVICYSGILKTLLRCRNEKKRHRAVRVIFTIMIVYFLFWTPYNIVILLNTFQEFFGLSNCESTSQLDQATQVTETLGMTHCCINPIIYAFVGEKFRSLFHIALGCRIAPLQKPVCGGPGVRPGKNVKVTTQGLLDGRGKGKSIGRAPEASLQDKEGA

- pKd: 9.04
Substance: mouse MCP-1: mouse chemokine MCP-1, major ligand of CCR-2
